Assay results taken from patent US10323078B2, “Isolated peptides and fragments thereof from fibrinogen for use as drugs, particularly in skin inflammatory diseases” (Universite Paris Descartes, priority 2015, dated 2019).

Legend:
[1] = system: Pfg binding to fibrinogen; experiment: Inhibition of biotinylated Pfg binding to coated fibrinogen; design: species or system Propionibacterium acnes; conditions: biotinylated Pfg pretreated with increasing amount of recombinant peptide 1 h at 37° C.; fibrinogen coated 25 μg per well
Description: FIG. 9: Dose-dependent inhibition of biotinylated Pfg binding to fibrinogen by fibrinogen-derived peptide. Biotinylated PFg (0.4 mg) was pretreated with increasing amount of recombinant peptides Fg1 (♦), Fg2 (▪) or BSA as control (●) for 1 h at 37° C., and the binding activity to coated fibrinogen on polystyrene plate (25 μg per well) was evaluated. Results are expressed as mean±SD. Each point was done in quadruplet.
Since it has been shown that only Fg1 was able to recognize Pfg, biotinylated Pfg was pre-treated with various concentrations of purified Fg1 and tested its ability to recognize immobilized fibrinogen. Fg2 and BSA were used as neative controls (FIG. 9).

NHDK cells [2] = experiment: H2O2 production by P. acnes-stimulated NHDK; format: cell-based, human; conditions: 0.87 to 7 μM
Description: (§1) For experiences of stimulation with P. acnes, cells were incubated with the P. acnes suspension adjusted at the appropriate concentration, pre-treated for 1 h at 37° C. or not with fibrinogen recombinant peptides Fg1 and Fg2 at the concentrations 0.87, 1.75, 3.5 or 7 μM for the desired period of time at 37° C. in 5% CO2.
(§2) All cells lines (5·10^4 to 10^5 cells/well) were seeded in 96-well plates (Corning Costar, Brumath, France) and treated as previously described. After stimulation, cells were washed three times in PBS and incubated with 100 μl per wells of 5 μM DHE (for determination of O2^●−) or 5 μM H2-DCFDA (for determination of H2O2) for 30 min as described previously and fluorescence intensity was recorded every hour over a period of 5 h. Fluorescence excitation/emission maxima were for DHE: 480/610 nm and for H2-DCFDA: 507/525 nm. At the end of the experiment, the number of adherent cells was evaluated by the crystal violet assay as described below. O2^●−, and H2O2 were assayed by spectrofluorimetry on a Fusion spectrofluorimeter (PackardBell, Paris, France). Levels of ROS were calculated in each sample as follows: reactive oxygen species rate (arbitrary units/min/10^6 cells)=(fluorescence intensity [arbitrary units] at T5h—fluorescence intensity [arbitrary units] at To/300 minutes/number of adherent cells as measured by the crystal violet assay, and were expressed as arbitrary unit (A.U.).
(§3) To assess the efficacy of Fg1 recombinant peptide, the production of O2^∘− and H2O2 by HaCaT cells NHDK, THP-1, MRC5 and HDF stimulated by pretreated P. acnes strains 6919, RON and PIE was measured. The amount of ROS produced was compared to that produced by the stimulated cells with untreated bacteria. Production baseline was obtained by measuring ROS on unstimulated cells. The production of IL-1ß, IL-8, IL-12 and TNF-α was also measured in all conditions cited above. The measurement of the production of ROS is performed by spectrofluorimetry in the presence of specific fluorochromes directly on the monolayer cell. Measurement of cytokine production was performed in parallel on the cell culture supernatant.
(§4) Two sets of experiments were implemented: 1) The cells were stimulated (18 h at 37° C.) by P. acnes strains previously pretreated with Fg1 and Fg2 peptides at the final concentrations ranging from 0.87 to 7 μM for 1 h at 37° C.; and 2) The cells were pretreated first with Fg1 and Fg2 peptides at the final concentrations ranging from 0.87 to 7 μM for 24 h at 37° C. and stimulated (18 h at 37° C.) by P. acnes strains.
(§5) To assess the efficacy of the small Fg1-related peptide, the production of H2O2 by several cell lines (HaCaT, NHDK, THP-1, MRC5 and HDF) stimulated by three P. acnes strains 6919, RON and PIE was measured, in presence or not with the small peptides. The amount of H2O2 produced is compared to that produced by the stimulated cells with untreated bacteria. Production baseline is obtained by measuring H2O2 on unstimulated cells. The measurement of the production of H2O2 is performed by spectrofluorimetry in the presence of specific fluorochromes directly on the monolayer cell.
(§6) Two sets of experiments have been implemented: • I) The cells are stimulated (18 h at 37° C.) by P. acnes strains previously pretreated with Fg1.1, Fg1.2, Fg1.3, Fg1.4, and Fg1.5 small peptides at the final concentrations ranging from 2.5 to 20 μM for 1 h at 37° C.; • II) The cells are pretreated first with the five small peptides at the final concentrations ranging from 2.5 to 20 μM for 24 h at 37° C. and stimulated (18 h at 37° C.) by P. acnes strains.

ThP1 cells [3] = experiment: H2O2 production by P. acnes-stimulated ThP1; format: cell-based, human; conditions: 0.87 to 7 μM
Description: as §1, §2, §3, §4, §5, §6

NHDK cells [4] = experiment: IL-1β production by P. acnes-stimulated NHDK (ELISA); format: cell-based, human; conditions: P. acnes 6919, set I, bacteria first pretreated, 0.87 to 7 μM
Description: as §1
(§7) Human IL-1ß, IL-8, IL-12, hBD-2, and TNF-α protein concentration was measured in the supernatants of stimulated cells using various ELISA Set kits (Ready-Set-Go kit from eBioscience for acne experiments, and for psoriasis experiments the Duo set IL-8 kit from R&D Systems and the BD-2 Human Development (hBD-2) from Peprotech) according to the manufacturer's instructions. We used serial dilutions of recombinant human IL-1ß, IL-8, IL-12 and TNF-α for standard curve. The optical density was determined at 450 nm at a wavelength correction of 540 nm.
as §3, with “The measurement of the production of ROS is performed by spectrofluorimetry in the presence of specific fluorochromes directly on the monolayer cell. Measurement of cytokine production was performed in parallel on the cell culture supernatant.” left out

MRC5 cells = experiment: TNF-α production by P. acnes-stimulated MRC5 (ELISA); format: cell-based, human; conditions: 0.87 to 7 μM
Description: as §1, §7, §3, §4

ThP1 cells [5] = experiment: TNF-α production by P. acnes-stimulated ThP1 (ELISA); format: cell-based, human; conditions: 0.87 to 7 μM
Description: as §1, §7, §3, §4

[6] = P. acnes 6919, set I, bacteria first pretreated
[7] = P. acnes 6919, set II, cells first pretreated
[8] = P. acnes PIE, set I, bacteria first pretreated
[9] = P. acnes PIE, set II, cells first pretreated
[10] = P. acnes RON, set I, bacteria first pretreated
[11] = P. acnes RON, set II, cells first pretreated

B1: MKRMVSWSFHKLKTMKHLLLLLLCVFLVKSQGVNDNEEGFFSARGHRPLDKKREEAPSLRPAPPPISGGGYRARPAKAAATQKKVERKAPDAGGCLHADPDLGVLC (protein)
chain: MKRMVSWSFHKLKTMKHLLLLLLCVFLVKSQGVNDNEEGFFSARGHRPLDKKREEAPSLRPAPPPISGGGRARPAKAAATQKKVERKAPDAGGCLHADPDLGVLCMKRMVSWSFHKLKTMKHLLLLLLCVFLVKSQGVNDNEEGFFSARGHRPLDKKREEAPSLRPAPPPISGGGYRARPAKAAATQKKVERKAPDAGGCLHADPDLGVLC
modifications: GST fusion; fragment Fg1
notes: fragment of Bß chain of human fibrinogen having 106 amino acids; recombinant GST-fused peptide expressed in E. coli
[1]
  Inhibition of the recognition between Pfg and human fibrinogen: dramatically decreased
NHDK cells [2]; [6]
  Inhibition of Hydrogen peroxide (H2O2) production: pos
NHDK cells [2]; [7]
  Inhibition of Hydrogen peroxide (H2O2) production: pos
NHDK cells [2]; [8]
  Inhibition of Hydrogen peroxide (H2O2) production: pos
NHDK cells [2]; [9]
  Inhibition of Hydrogen peroxide (H2O2) production: pos
NHDK cells [2]; [10]
  Inhibition of Hydrogen peroxide (H2O2) production: pos
NHDK cells [2]; [11]
  Inhibition of Hydrogen peroxide (H2O2) production: pos
ThP1 cells [3]; [6]
  Inhibition of Hydrogen peroxide (H2O2) production: pos
ThP1 cells [3]; [7]
  Inhibition of Hydrogen peroxide (H2O2) production: pos
ThP1 cells [3]; [8]
  Inhibition of Hydrogen peroxide (H2O2) production: pos
ThP1 cells [3]; [9]
  Inhibition of Hydrogen peroxide (H2O2) production: pos
ThP1 cells [3]; [10]
  Inhibition of Hydrogen peroxide (H2O2) production: pos
ThP1 cells [3]; [11]
  Inhibition of Hydrogen peroxide (H2O2) production: pos
NHDK cells [4]
  Inhibition of Interleukine 1 beta (IL-1β) production: pos
MRC5 cells; [6]
  Inhibition of Interleukine TNF alpha (TNF-α) production: pos
MRC5 cells; [7]
  Inhibition of Interleukine TNF alpha (TNF-α) production: pos
MRC5 cells; [8]
  Inhibition of Interleukine TNF alpha (TNF-α) production: pos
MRC5 cells; [9]
  Inhibition of Interleukine TNF alpha (TNF-α) production: pos
MRC5 cells; [10]
  Inhibition of Interleukine TNF alpha (TNF-α) production: pos
MRC5 cells; [11]
  Inhibition of Interleukine TNF alpha (TNF-α) production: pos
ThP1 cells [5]; [6]
  Inhibition of Interleukine TNF alpha (TNF-α) production: pos
ThP1 cells [5]; [7]
  Inhibition of Interleukine TNF alpha (TNF-α) production: pos
ThP1 cells [5]; [8]
  Inhibition of Interleukine TNF alpha (TNF-α) production: pos
ThP1 cells [5]; [9]
  Inhibition of Interleukine TNF alpha (TNF-α) production: pos
ThP1 cells [5]; [10]
  Inhibition of Interleukine TNF alpha (TNF-α) production: pos
ThP1 cells [5]; [11]
  Inhibition of Interleukine TNF alpha (TNF-α) production: pos
